From article PMC10294715, “Single-cell RNA-seq uncovers dynamic processes orchestrated by RNA-binding protein DDX43 in chromatin remodeling during spermiogenesis”

Molecular target: DDX43 (Mus musculus, UniProt D3Z6P9 1-646)
Test: EMSA; EMSA: 10 nM biotin-RNA, 50 mM Tris-HCl pH 7.5, 100 mM KCl, 2.5% glycerol, 0.05% NP-40, 4 mM EDTA, 1 mM DTT, RiboLock 2 U, 37 C 30 min; 8% native TBE PAGE at 4 C; G4 folded in 50 mM Tris-HCl pH 7.5, 150 mM KCl, 0.1 mM EDTA
Conditions: protein: recombinant; tags: His tag (Ni-NTA, pET28a); label: 3' biotin; single strand

Chain of DDX43 (D3Z6P9 entry or part of it): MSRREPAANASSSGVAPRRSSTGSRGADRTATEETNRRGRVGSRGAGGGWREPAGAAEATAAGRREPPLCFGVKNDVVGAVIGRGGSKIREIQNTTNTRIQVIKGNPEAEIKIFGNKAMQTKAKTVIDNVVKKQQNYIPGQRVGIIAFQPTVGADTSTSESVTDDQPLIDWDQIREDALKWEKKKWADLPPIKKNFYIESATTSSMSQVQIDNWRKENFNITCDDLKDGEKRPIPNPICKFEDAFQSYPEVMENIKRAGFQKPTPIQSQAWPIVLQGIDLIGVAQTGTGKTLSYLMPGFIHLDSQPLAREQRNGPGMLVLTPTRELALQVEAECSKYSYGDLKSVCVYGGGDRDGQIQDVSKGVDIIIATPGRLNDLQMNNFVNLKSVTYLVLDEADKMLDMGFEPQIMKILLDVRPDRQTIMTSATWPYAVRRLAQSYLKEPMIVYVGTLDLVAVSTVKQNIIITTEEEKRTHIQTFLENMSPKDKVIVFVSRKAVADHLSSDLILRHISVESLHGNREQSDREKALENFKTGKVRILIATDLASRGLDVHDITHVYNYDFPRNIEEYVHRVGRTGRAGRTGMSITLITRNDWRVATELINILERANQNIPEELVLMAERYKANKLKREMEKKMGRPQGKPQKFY

ACCGCUGCCGUCGCUCCG (ssRNA) [ssRNA]: no binding.
